For 17 molecules, Kd results are on record in article PMC10611751 (2023).

To fix the notation:
T1: Ankyrin-G ANK repeats 8-14 (UniProt O70511 275-500)
T1 chain: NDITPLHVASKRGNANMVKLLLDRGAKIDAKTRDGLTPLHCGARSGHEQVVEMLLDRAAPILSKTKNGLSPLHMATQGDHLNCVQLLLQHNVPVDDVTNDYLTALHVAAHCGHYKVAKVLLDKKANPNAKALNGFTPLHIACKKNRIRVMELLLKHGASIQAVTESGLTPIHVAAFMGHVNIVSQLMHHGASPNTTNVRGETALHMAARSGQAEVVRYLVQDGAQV

T2: Ankyrin-G 24 ANK repeats (residues 38-855) (UniProt O70511 38-855)
T2 chain: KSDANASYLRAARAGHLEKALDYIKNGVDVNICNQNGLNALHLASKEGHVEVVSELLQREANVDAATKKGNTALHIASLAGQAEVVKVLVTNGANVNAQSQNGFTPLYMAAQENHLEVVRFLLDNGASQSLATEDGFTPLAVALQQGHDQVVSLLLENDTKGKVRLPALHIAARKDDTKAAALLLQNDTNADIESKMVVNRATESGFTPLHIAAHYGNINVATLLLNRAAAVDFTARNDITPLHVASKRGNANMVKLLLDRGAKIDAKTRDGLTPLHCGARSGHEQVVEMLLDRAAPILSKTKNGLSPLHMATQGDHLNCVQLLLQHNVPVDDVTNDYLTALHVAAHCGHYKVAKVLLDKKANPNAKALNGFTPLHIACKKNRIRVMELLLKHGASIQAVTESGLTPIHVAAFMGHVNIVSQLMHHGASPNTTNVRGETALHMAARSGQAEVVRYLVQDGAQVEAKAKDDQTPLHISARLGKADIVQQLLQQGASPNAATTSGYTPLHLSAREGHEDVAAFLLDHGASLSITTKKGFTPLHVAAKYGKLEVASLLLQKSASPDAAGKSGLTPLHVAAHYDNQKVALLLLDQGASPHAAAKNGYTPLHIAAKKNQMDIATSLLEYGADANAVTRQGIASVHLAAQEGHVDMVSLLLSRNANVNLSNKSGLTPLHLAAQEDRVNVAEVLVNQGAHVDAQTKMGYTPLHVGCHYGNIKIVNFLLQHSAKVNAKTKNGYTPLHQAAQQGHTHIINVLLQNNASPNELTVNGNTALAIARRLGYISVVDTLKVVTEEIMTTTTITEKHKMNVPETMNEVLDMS

T3: AnkG R6-24 (Rattus norvegicus)
T3 chain: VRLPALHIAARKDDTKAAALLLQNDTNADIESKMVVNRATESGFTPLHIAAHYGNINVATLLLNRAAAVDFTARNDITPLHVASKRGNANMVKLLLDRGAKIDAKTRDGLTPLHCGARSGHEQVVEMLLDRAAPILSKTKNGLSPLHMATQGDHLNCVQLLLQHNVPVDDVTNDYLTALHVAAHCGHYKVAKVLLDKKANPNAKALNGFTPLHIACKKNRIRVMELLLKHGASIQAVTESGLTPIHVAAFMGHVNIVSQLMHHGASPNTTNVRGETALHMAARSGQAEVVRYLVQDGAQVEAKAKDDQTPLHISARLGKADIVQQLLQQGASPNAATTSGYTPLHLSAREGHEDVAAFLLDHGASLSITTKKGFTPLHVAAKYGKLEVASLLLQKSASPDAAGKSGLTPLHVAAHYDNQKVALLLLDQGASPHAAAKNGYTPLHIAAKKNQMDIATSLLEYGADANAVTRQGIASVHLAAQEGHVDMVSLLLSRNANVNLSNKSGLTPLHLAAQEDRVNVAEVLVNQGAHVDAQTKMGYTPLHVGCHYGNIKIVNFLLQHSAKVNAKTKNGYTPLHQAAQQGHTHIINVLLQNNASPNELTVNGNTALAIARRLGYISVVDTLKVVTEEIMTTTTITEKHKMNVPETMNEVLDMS

B1: E-cadherin 828-869 (containing both site-2 and site-3) (domain or fragment)
chain: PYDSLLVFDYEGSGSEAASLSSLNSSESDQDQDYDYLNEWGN
B2: E-cadherin 751-775 (site-1) (domain or fragment)
chain: RDNVYYYDEEGGGEEDQDFDLSQLH
B3: E-cadherin 755-770 Y755A,Y756A (peptide)
chain: AAYDEEGGGEEDQDFD
B4: E-cadherin site-1 Y757A (domain or fragment)
chain: YYADEEGGGEEDQDFD
B5: E-cadherin 854-869 Y861A,Y863A (peptide)
chain: ESDQDQDADALNEWGN
B6: E-cadherin site-3 Y861A (domain or fragment)
chain: ESDQDQDADYLNEWGN
B7: E-cadherin site-2 Y829A (domain or fragment)
chain: PADSLLVFDYEGSGS
B8: E-cadherin site-1 Y756A (domain or fragment)
chain: YAYDEEGGGEEDQDFD
B9: E-cadherin site-1 Y755A (domain or fragment)
chain: AYYDEEGGGEEDQDFD
B10: E-cadherin 755-770 Y755A,Y757A (peptide)
chain: AYADEEGGGEEDQDFD
B11: E-cadherin site-2 Y837A (domain or fragment)
chain: PYDSLLVFDAEGSGS
B12: E-cadherin 755-770 Y756A,Y757A (peptide)
chain: YAADEEGGGEEDQDFD
B13: E-cadherin site-3 Y863A (domain or fragment)
chain: ESDQDQDYDALNEWGN
B14: E-cadherin site-3 W867A (domain or fragment)
chain: ESDQDQDYDYLNEAGN
B15: E-cadherin 734-775 (domain or fragment)
chain: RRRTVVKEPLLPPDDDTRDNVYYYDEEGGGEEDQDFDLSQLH
B16: E-cadherin 776-884 (domain or fragment)
chain: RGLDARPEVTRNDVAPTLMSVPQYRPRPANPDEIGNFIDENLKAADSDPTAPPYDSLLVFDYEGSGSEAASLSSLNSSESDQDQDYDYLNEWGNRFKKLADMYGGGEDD
B17: E-cadherin 734-838 (protein)
chain: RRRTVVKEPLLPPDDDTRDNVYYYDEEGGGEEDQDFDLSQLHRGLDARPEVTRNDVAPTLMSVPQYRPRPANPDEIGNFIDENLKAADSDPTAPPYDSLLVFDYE

The target of one experiment is T1, Ankyrin-G ANK repeats 8-14. Nature of the experiment: ITC. In general terms: Isothermal titration calorimetry measures the heat released or taken up as one component is titrated into another.
B1 yielded a Kd of 7.1 µM.

Regarding B2, the Kd was found to be 8.9 µM.

The target in a further experiment is T2, Ankyrin-G 24 ANK repeats (residues …). Nature of the experiment: ITC.
Take B3: the affinity, expressed as Kd, was 4.2 µM.

B4 registered a Kd of 2.2 µM.

With B5, binding was characterised by a dissociation constant (Kd) of 5.8 µM.

The molecule B6 showed a Kd of 3.2 µM.

For B7, the Kd was 1.7 µM.

In the case of B8, the Kd was found to be 2.2 µM.

As to B9, the Kd worked out at 5 µM.

B10 returned a Kd of 4.1 µM.

In turn, B11 displayed a Kd of 9.5 µM.

Molecule B12 registered a Kd of 7.1 µM.

B13 gave a Kd of 3.9 µM.

In turn, B14 yielded a Kd of 3.9 µM.

For a further experiment, the target named is T3, AnkG R6-24. Nature of the experiment: ITC.
For B1, the Kd was found to be 1 µM.

Take B2: the Kd was determined as 1.8 µM.

For a further experiment, the target named is T2, Ankyrin-G 24 ANK repeats (residues …). Nature of the experiment: ITC. The source holds these as a separate data set.
Molecule B15 returned a Kd of 1.5 µM.

Molecule B16 returned a dissociation constant Kd of 0.8 µM.

Molecule B17 returned a Kd of 1.1 µM.

As usually defined, the Kd is the equilibrium constant for the complex coming apart.
